Assay results taken from patent US20220023385A1 (Stanford University, published 2022).
Changes are numbered by the printed parent chain. Values belong to the binder of their own block, whether it stands above or below them.

How the values were obtained:
[1] = biological target: T1, Met-Fc fusion protein (R&D Systems) labeled with Alexa 488 (UniProt P08581 25-932, Alexa 488 label); assay: flow cytometry, yeast display, after heating to varying temperatures
T1 construct: Bought reagent; also called Met-Fc A488; soluble Met-Fc; not shown: Fc domain

[2] = biological target: T2, human FGFR1 beta (IIIc)-Fc (R&D Systems) (human, UniProt P11362-14 22-285, limits assumed); assay: flow cytometry on yeast displaying the peptide, stained for c-myc and FGFR1-Fc
T2 construct: Bought reagent; also called FGFR1-Fc; soluble FGFR1-Fc; not shown: Fc domain, detected with anti-Human IgG
T2 sequence (looked up): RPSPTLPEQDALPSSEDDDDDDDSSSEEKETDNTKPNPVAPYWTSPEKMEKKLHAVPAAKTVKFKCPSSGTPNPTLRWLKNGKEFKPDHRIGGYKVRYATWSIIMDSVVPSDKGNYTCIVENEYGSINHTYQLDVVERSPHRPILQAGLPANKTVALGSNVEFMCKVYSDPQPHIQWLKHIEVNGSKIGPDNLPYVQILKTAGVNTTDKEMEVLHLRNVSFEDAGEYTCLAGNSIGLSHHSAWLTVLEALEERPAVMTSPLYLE
Procedure: FIG. 15. Non-binding of peptide artifacts to FGFR1-Fc. Yeast cells expressing RTTTS or HTTS peptides on their cell surface were incubated with 10 nM FGFR1-Fc. Cells were stained with fluorescent antibodies for expression (α-c-myc) and binding (α-FGFR1-Fc).
50,000 induced yeast cells were incubated with various concentrations of FGFR1-Fc in phosphate-buffered saline with 1 g/L BSA (PBSA) at room temperature. Cells were incubated in sufficiently large volumes to avoid ligand depletion and long enough times (typically 3 to 24 hours) to reach equilibrium. During the last 30 minutes of incubation, yeast cells were incubated with 1:2500 dilution of chicken anti-c-Myc (Invitrogen) in PBSA. Yeast were pelleted, washed, then incubated with 1:200 dilution of secondary antibodies on ice for 10 min: anti-Human IgG-FITC (Sigma Aldrich) against FGFR1-Fc and anti-chicken-IgY-PE (Santa Cruz Biotechnology) against anti-c-myc. Yeast were washed, pelleted, and resuspended in PBSA immediately before analysis by flow cytometry using EMD Millipore Guava EasyCyte. Flow cytometry data were analyzed using FlowJo (v7.6.1). Binding curves were plotted and Kd values were obtained using GraphPad Prism 6.

[3] = biological target: Met receptor on MDCK cells; assay: cell-based or functional assay
Met receptor on MDCK cells, sequence (Q75ZY9 whole entry): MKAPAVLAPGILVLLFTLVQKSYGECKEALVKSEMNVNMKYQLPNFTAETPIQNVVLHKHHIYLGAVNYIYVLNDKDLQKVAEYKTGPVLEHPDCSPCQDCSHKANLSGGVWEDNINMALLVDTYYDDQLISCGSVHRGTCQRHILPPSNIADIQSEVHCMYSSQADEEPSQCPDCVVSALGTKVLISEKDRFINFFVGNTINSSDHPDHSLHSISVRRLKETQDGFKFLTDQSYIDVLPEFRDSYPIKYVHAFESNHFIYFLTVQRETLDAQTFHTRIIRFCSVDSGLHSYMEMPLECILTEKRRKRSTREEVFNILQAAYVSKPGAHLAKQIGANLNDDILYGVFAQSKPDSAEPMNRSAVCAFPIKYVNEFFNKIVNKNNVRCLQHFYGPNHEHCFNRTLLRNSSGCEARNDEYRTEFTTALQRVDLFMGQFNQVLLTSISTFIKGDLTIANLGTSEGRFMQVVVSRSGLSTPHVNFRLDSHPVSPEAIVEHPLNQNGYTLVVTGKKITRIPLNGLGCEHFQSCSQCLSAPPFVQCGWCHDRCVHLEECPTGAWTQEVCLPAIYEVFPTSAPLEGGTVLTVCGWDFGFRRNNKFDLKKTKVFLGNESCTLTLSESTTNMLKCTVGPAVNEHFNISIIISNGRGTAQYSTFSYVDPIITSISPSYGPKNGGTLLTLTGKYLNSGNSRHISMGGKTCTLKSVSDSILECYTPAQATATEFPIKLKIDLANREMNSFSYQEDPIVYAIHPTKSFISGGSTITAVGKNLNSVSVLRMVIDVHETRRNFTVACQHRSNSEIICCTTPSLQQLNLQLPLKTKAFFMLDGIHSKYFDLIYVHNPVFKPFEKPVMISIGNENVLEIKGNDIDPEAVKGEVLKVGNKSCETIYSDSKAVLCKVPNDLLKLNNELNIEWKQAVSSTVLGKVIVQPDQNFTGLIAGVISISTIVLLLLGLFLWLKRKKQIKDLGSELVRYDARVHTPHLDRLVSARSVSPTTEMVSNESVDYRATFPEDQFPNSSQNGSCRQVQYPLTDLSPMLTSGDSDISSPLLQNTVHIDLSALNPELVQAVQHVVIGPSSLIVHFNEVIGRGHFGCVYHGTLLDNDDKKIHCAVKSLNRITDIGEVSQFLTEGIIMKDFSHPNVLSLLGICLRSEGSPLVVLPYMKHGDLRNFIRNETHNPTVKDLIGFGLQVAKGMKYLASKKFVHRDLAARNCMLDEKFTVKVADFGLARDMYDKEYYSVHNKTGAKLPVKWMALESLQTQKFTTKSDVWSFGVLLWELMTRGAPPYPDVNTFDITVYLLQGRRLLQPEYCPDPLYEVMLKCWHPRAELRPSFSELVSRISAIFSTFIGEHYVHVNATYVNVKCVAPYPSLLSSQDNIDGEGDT

T1 sequence (P08581 25-932 limits assumed): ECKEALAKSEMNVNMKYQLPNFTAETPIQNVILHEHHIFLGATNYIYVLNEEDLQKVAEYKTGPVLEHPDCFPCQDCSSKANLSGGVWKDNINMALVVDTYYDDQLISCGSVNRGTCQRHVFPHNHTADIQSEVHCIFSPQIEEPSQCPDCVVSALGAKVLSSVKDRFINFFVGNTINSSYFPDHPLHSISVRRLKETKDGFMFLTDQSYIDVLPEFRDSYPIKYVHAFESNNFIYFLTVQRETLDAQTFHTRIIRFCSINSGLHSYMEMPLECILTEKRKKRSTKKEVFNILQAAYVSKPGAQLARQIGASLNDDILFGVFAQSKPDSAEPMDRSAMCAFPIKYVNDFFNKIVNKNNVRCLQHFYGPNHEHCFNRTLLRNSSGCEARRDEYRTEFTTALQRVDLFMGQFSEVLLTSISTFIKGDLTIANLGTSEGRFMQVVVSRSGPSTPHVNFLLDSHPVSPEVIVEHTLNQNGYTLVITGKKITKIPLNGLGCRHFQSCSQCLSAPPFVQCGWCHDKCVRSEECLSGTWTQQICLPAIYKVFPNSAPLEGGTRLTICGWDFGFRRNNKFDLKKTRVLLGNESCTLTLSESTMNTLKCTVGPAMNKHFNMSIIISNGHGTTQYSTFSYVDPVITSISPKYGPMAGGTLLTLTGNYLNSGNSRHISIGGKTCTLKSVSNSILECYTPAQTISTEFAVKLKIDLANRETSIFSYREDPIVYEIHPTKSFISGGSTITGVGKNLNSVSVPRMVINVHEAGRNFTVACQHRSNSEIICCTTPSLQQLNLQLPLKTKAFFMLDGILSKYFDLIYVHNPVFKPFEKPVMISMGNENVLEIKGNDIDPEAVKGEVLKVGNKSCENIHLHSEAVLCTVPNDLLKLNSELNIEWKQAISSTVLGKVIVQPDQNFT

B2: NK1 mutant M2.2 displayed on yeast (ligand)
chain: YAEGQRKRRNTIHEFKKSAKTTLIKIDPALKIKTEKVNTADQCANRCTRNKGLPFTCKAFVFDKARKRCLWFPFNSMSSGVKKEFGHEFDLYENKDYIRDCIIGNGRSYRGTVSITKSGIKCQPWSSMIPHEHSFLPSSYRGEDLRENYCRNPRGEEGGPWCFTSDPEVRYEVCDIPQCSEVE
notes: Yeast display fusion as for m10
binding result [1]: binds

B3: RTTTS peptide displayed on yeast (peptide)
peptide: RTTTS
notes: also called peptide artifact
binding result [2]: no binding (tested: 10 nM FGFR1-Fc)

B5: Aras-4 (ligand)
chain: B2 chain with R6G, K31R, V37A, N50S, D96A, N105R, S108N, S127A, F163Y
inhibition of HGF-induced activation of Met, concentration against M2.2 D127A or NK1 N127A [3]: ~5 fold lower concentration

The remaining lines, values ahead:

binding result [1]: binds
B1: NK1 mutant M2.1 displayed on yeast (ligand)
chain: B2 chain with R68Q, N105K, R146Q
notes: as for B2

binding result [2]: no binding (tested: 10 nM FGFR1-Fc)
B4: HTTS peptide displayed on yeast (peptide)
peptide: HTTS
notes: also called peptide artifact
